Substitutions are numbered along the chain they refer to.

Consider one protein from US7011951.

Data set [1] deals with T1, AcinusS (D/A) resulting from substitution of Asp^1093 with Ala.
T1 chain: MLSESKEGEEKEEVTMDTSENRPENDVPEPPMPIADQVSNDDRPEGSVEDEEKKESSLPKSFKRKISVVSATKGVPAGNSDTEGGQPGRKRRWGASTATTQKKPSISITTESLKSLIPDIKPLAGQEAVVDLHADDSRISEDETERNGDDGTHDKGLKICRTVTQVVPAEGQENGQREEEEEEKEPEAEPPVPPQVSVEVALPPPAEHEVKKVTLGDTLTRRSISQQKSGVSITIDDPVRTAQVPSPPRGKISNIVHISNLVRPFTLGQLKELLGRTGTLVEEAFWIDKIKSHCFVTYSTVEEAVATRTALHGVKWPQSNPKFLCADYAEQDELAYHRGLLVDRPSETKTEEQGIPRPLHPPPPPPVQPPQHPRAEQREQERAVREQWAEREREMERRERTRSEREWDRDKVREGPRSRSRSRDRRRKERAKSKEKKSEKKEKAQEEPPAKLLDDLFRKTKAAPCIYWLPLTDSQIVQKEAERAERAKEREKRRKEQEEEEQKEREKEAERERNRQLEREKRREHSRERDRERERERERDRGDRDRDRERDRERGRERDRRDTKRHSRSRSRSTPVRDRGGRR

A further data set deals with T2, human AcinusS.
T2 chain: T1 chain with A335D

B1: recombinant active human caspase-3 (protein)
chain: SGISLDNSYKMDYPEMGLCIIINNKNFHKSTGMTSRSGTDVDAANLRETFRNLKYEVRNKNDLTREEIVELMRDVSKEDHSKRSSFVCVLLSHGEEGIIFGTNGPVDLKKITNFFRGDRCRSLTGKPKLFIIQACRGTELDCGIETDSGVDDDMACHKIPVEADFLYAYSTAPGYYSWRNSKDGSWFIQSLCAMLKQYADKLEFMHILTRVNRKVATEFESFSFDATFHAKKQIPCIVSMLTKELYFYH
On to B1, for which the “in vitro cleavage by caspase-3 (SDS-PAGE, immunoblot)” value in data set [1] is given as “a mutation of substituting Asp^1093 with Ala (D/A) abolished the in vitro cleavage of Acinus by caspase-3”. The “cleavage of AcinusS by caspase-3 (SDS-PAGE, immunoblot; microsequencing of the cleavage product)” value in the data set with human AcinusS is “human AcinusS was actually cleaved with caspase-3 in vivo, and the cleavage site was determined to be the Asp^1093 of DELD^1093”.
